This note sets out measurements from the nanobody polyreactivity screen of Harvey et al. (2022).

The series in a line: yeast display, Sf9 membrane polyspecificity reagent, FACS + sequencing; frameworks hold sequencing errors. A digest of the protocol: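 Galactose induction of a Saccharomyces cerevisiae BJ5465 synthetic nanobody display library ran 36–48 hours. The cells were then stained for 1 hour at 4 °C with 10% biotinylated, detergent-solubilized Sf9 membrane reagent, pulled down on streptavidin microbeads and FACS-sorted into low and high (top ~1%) gates on expression and reagent-binding fluorescence. Labels for polyreactivity follow the gate of origin.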
As for “QVQLVESGGGLVQAGGSLRLSCAASGSILFLNAMGWYSQAPGKERELVASITDSGGGTYYADSVKGRFTISRDNAKNTVYLQMNSLKPEDTAVYYCNARSRRPDDYWGQGTQVTVSS”, the “polyreactivity (PSR sort gate)” value is given as “low polyreactivity”.
With “QVQLVESGGGLVQAGGSLRLSCAASGSILFNNAMGWYRQAPGKEWELVAAMGANGGNTYYADSVKGRFTISCDNATNTVYLQMTSLKPEDTAVYYCSADKTLYGGGAWTRWFHYTYGYWGQGTQVTVSS” the entry was “high polyreactivity”.
Take “QVQLVESGGGLVQAGGSLRLSCAASGSILFRYGMGWYRQAPGKERELVAAINSGGSTYADSVKGRFTISRDNAKNTVYLQMNSLKPEDTAVYYCAKVAWQAHGGPGEFDYWGQGTQVTVSS”: the “polyreactivity (PSR sort gate)” value was “low polyreactivity”.
Turning to “QVQLVESGGGLVQAGGSLRLSCAASGSILFYNAMGWYRQAPGKERELVAAISSGGSTYYADSVKGRFTISRDNAKNTVYLQMNSLKPEDTAVYNCAARRRYSSVYYYYTTRRGYWGQGTQVTVSS”, the “polyreactivity (PSR sort gate)” value is on record as “high polyreactivity”.
To “QVQLVESGGGLVQAGGSLRLSCAASGSILGGNAMGWYRQAPGKERELVAAITFSGGGTYYADSVKGRFTISRDNGKNTVYLQMNSLKPEDTALYNCAADKDGYTYEFDYWGQGTQVTVSS” belongs “low polyreactivity”.
To “QVQLVESGGGLVQAGGSLRLSCAASGSILGGNAMGWYRQAPGKEWELVAAITFSGGGTYYADSVKGRFTSSRDNAKNTVYLQMNSLKPEDTAVYYCAADKDGYTYEFDYWGQGTQVTVSS” belongs “low polyreactivity”.
“QVQLVESGGGLVQAGGSLRLSCAASGSILGHYAMGWYRQAPGKERELVAAISWSGGSTYYADSVKGRFTISRDNAKNTVYLQMNSLKPEDTAVYYCNAYLSPKQPLSPPDPTFEGGYWGQGTQVTVSS”: the “polyreactivity (PSR sort gate)” value is given as “low polyreactivity”.
To “QVQLVESGGGLVQAGGSLRLSCAASGSILGRYAMGWYRQAPGKERELVAAITSSGGRTYYADSVKGRFTISRDNAKNSVYLQMNSLKPEDTAVYYCAARYGRRLVWVPALLYDYWGQGTQVTVSS” belongs “high polyreactivity”.
To “QVQLVESGGGLVQAGGSLRLSCAASGSILGTYAMGWYRQAPGKERDLVAAISSSGRTSYADSVKGRFTISRDNAKNTVYLQMNSLKPEDTAVYFCNKVTSYYVFYTPYYSWGQGTQVTVSS” belongs “low polyreactivity”; to “QVQLVESGGGLVQAGGSLRLSCAASGSILGTYAMGWYRQAPGKERELVAAISASGRTSYADSEKGRFTISRDNAKNTVYLQMNSLKPEDTAVYDCNASNYFVLINDPDAAPWLYDYWGHGTQVTVSS”, “low polyreactivity”; to “QVQLVESGGGLVQAGGSLRLSCAASGSILGYYAMGWYRQAPGKERELVAAISWSGGRTYYADSVKGRFTISRDNAKNTVYLQMNSLKPEDTAVYYCNARWRSGPRAYDYWGQGTQVTVSS”, “high polyreactivity”.
To “QVQLVESGGGLVQAGGSLRLSCAASGSILGYYAMGWYRQAPGKERELVAAITASGGSTYYADSVKGRFTISRDNAKNTVYLQMNSLKPEDTAVYYCNADGGPGYPRAYDYWGQGTQVTVSS” belongs “low polyreactivity”.
Take “QVQLVESGGGLVQAGGSLRLSCAASGSILGYYAMGWYRQAPGKERELVAAITWRGGRTYYADSVKGRFTISRDNAMNTVYLQMNSLKPEDTAVYYCAKVPSGYKGYDYWGQGTQVTVSS”: the “polyreactivity (PSR sort gate)” value was “high polyreactivity”.
To “QVQLVESGGGLVQAGGSLRLSCAASGSILKGYAMGWYRQAPGKERELVAAISGSGGSTHYADSVKGRFTISRDNAKNTVYLQMNSLKPEDTAVYYCAAAYKWTYYWGQGTQVTVSS” belongs “high polyreactivity”; to “QVQLVESGGGLVQAGGSLRLSCAASGSILKYYAMGWYRQAPGKERELVAAISSGGSTYYADSVKGRFTISRDNAKNTVYLQMNSLKPEDTAVYYCAAAWYGAKYIVLYDYWGQGTQVTVSS”, “low polyreactivity”.
To “QVQLVESGGGLVQAGGSLRLSCAASGSILLDNAMGWSRQAPGKERELVAAISLSGGGSTYYADSVKGRFTISRDNAKNTVYLQMNSLKPEATAVYYCAAASTYPLPYDYWGQGTQVTVSS” belongs “low polyreactivity”; to “QVQLVESGGGLVQAGGSLRLSCAASGSILLPYAMGRYRHAPGKERELVAAITYRGASTHYAASVKGRFTISRDNAKNTVYLQMNSLKQEDPAVYYCAARGWVYYASEMDYWGQGTQGTVSS”, “low polyreactivity”; to “QVQLVESGGGLVQAGGSLRLSCAASGSILLRNTMGWYRQAPGKERELVAAISWRGGSTYYADSVKGRFTISRDNAKNTVYLQMNSLKPEDTAVYYCAARWVASHKGGYWGQGTQVTVSS”, “high polyreactivity”.
Turning to “QVQLVESGGGLVQAGGSLRLSCAASGSILNRYAMGWYRQAPGKERELVAAISRRSGSTYYADSVKGRFTISRDNAKNTVYLQMNSLKPEDTAVYYCAATSSLGDFRYDYWGQGTQVTVSS”, the “polyreactivity (PSR sort gate)” value is listed as “high polyreactivity”.
Regarding “QVQLVESGGGLVQAGGSLRLSCAASGSILNSYAMGWYRQAPGKERELVATITSGSRTNYADSVKGRFTISRDNAKNTVYLQMNSLKPEDTAVYYCATEYQRRHYIGHNYWGQGTQVTVSS”, the “polyreactivity (PSR sort gate)” value is reported as “low polyreactivity”.
With “QVQLVESGGGLVQAGGSLRLSCAASGSILPYYAMGWYRPAPGKERELVATITDGTDTYYADSVKGRFTISRDNAKNTVYLQMTSLKPEDTAVYYCARKQYWGYDYWGQGTQVTVSS” the entry was “low polyreactivity”; with “QVQLVESGGGLVQAGGSLRLSCAASGSILQPNAMGWYRQAPGKERELVAAISWSGDNTYYADSVKGRFTISRDNAKNTVYLQMNSLKPEDTAVYYCATDADIYFQEYDYWGQGTQVTVSS”, “low polyreactivity”.
Take “QVQLVESGGGLVQAGGSLRLSCAASGSILQRYAMGWYRQAPGKERELVAAISTSGSSTYYADSVKGRFTISRDNAKNTVYLQMNSLKPEDTAVYYCAAKSRKFDYWGQGTQVTVSS”: the “polyreactivity (PSR sort gate)” value is recorded as “high polyreactivity”.
With “QVQLVESGGGLVQAGGSLRLSCAASGSILQTNVMGWYRQAPGKEREFVAAIRWSTVSTYYADSVKGRFTISRDNAKNTVYLQMKSLKPEDTAVYYCASAKSWYSYKMDYWGQGTQVTVSS” the entry was “low polyreactivity”; with “QVQLVESGGGLVQAGGSLRLSCAASGSILQYYAMGWYRQTPGKERELVAAITSGGSTYYADSVKGRFTISRDNAKNTVYLQMNSLKPEDTAVYYCAKVYRRAQYDYCGQGTQVTVSS”, “low polyreactivity”; with “QVQLVESGGGLVQAGGSLRLSCAASGSILRLYVMGWYRQAPGKERELVADISDRGGSTYYADSVKGRFTISRDNAKNTVYLQLNSLKPEDTAVYYCDKDSETAGATYTEYDYWGQGTQVTVSS”, “low polyreactivity”.
“QVQLVESGGGLVQAGGSLRLSCAASGSILRSNAMGWYRQAPGKERELVATITNSGGSTYADSVKGCFTISRDNANNTVYLQMNSLKPEDTAVYYCAKAGAGESIAKYDYWGQGTQVTVSS”: the “polyreactivity (PSR sort gate)” value is given as “low polyreactivity”.
With “QVQLVESGGGLVQAGGSLRLSCAASGSILSDNAMGWYRQAPGKERELVASIRSGDITKYADSVKGRFTFSRDNAKNTVYLQMNSLKPEDTAVYYCASAGRVLYTRKYYGWRYLNDYWGQGTQVTVSS” the entry was “low polyreactivity”; with “QVQLVESGGGLVQAGGSLRLSCAASGSILSFYAMGWYRQAPGKERELVATISRRGGSTYYADSVKGRFTISRDNAKNTVYLQMNSLKPEDTAVYYCNKPGLSAWTQSSQYEYDYWGQGTQVTVSS”, “high polyreactivity”.
Turning to “QVQLVESGGGLVQAGGSLRLSCAASGSILSRYAMGWYRQAPGKERELVAAISSRGGSTYYADSVKGRFTISRDNAKNTVYLQMNSLKPEDTAVYYCAADPVGEVRVYARGYSWGQGTQVTVSS”, the “polyreactivity (PSR sort gate)” value is reported as “high polyreactivity”.
